These results are taken from patent publication US20100216693A1, “COMPOSITIONS AND METHODS OF TREATING DIABETES” (priority 2005, published 2010).

For test [1], the target named is T1, insulin-insulin interaction (Homo sapiens, UniProt P01308).
T1 construct: 28; purchased Novo Nordisk A/S, Denmark Actrapid
Briefly: SPR: effect of substances mixed with insulin in solution on insulin-insulin interaction. The note with it: for effect on insulin-insulin interaction when injected along with insulin: 1:5 molar ratio. The format is binding. The protocol: BiacorA Biacore 3000 instrument was employed for the interaction measurements based on surface plasmon resonance (SPR). Interaction analyses were performed at 25° C. in 10 mM Na-citrate buffers pH 3, 4, 5, 10 mM bis-Tris, pH 6, and 10 mM Tris/HC1, pH 7, all buffers containing 100 mM NaCl and 0.005% 5P20. Flow rates for the binding analyses were kept at 20 μl/min. […] Insulin was immobilized on a carboxymethyl-modified dextran surface via both amine and carboxyl coupling, using the surface thiol method, in two different lanes of Biacore CM5 chips. The immobilization was carried out according to the procedure described in the kits. In brief, the sensor chip surface was first washed with 4 M LiCl/HBS for 1 min and then with 0.2% SP20/HBS for 1 mM. The surface was activated according to standard procedure with an injection of 0.05 M NHS/0.2 M EDC for 7 min. Desalted insulin solution was diluted in acetate buffer, pH 4.5, to 20 μg/ml and injected at 50/min for different time intervals. For surface thiol coupling, the surface was first activated with 0.05 M NHS/0.2 M EDC for 2 min followed by a 3 min injection of 40 mM cystamine dihydrochloride and then 0.1 M DTE for 3 min. […] The mixture was incubated for 10 mM at room temperature and excess PDEA was removed on a NAP-10 column. The purified PDEA ligand was injected for 7 min, soon after DTE, and finally the surface was washed with 20 mM PDEA in 0.1 M sodium acetate, 1.0 M NaCl. For quick regeneration of the surface, 2 M guanidine-HC1, pH 6.4, was employed. For controls, lanes activated and deactivated according to the standard procedures were used. For subtraction of noise from the data, running buffer only was injected to all surfaces. For the C-terminal attachment, surface-thiol coupling to 4000-5000 RU was used, and for N-terminal attachment, amine coupling to 800-1000 RU as achieved on different CM5 chips. However for kinetic analysis immobilization was carried out in a controlled condition and around 1000 RU for C-terminal and 400 RU for N-terminal coupling were immobilized. A surface activated with EDC/NHS and deactivated with ethanolamine was used as a control surface for N-terminally immobilized insulin and a surface treated with EDC/NHS, cysteine/DTE and finally deactivated with PDEA-NaCl was used as a control for C-terminally immobilized insulin. Biacore data were analyzed with Bia-evaluation software 4.1. All calculations based on numerical approaches, including simulations and global curve fitting for estimates of active concentrations, were performed with IGOR Pro (version 4.01.A, WaveMetrics, Inc.). However, C-peptide, mixed with insulin in solution, influences the insulin-insulin monomer interactions measured above. […] This elevated interaction can be seen at different pH from 3-7. The phenomenon of more pronounced interaction was clearer when concentrations higher than 0.5 μM were used then below 0.5 μM. […] All concentrations were run in triplicates and in random order.
(In general: In SPR one partner is held on a chip, and binding of the other changes the refractive index at the surface.)

Test [2] has as its target T2, insulin immobilized on the surface of CM5 chip (Homo sapiens, UniProt P01308).
T2 construct: 28; purchased Novo Nordisk A/S, Denmark Actrapid
Briefly: SPR: direct binding of C-peptide and variants to insulin immobilized on CM5 chip. The note with it: pM-μM, pH 3-7. As to the method:
BiacorA Biacore 3000 instrument was employed for the interaction measurements based on surface plasmon resonance (SPR). Interaction analyses were performed at 25° C. in 10 mM Na-citrate buffers pH 3, 4, 5, 10 mM bis-Tris, pH 6, and 10 mM Tris/HC1, pH 7, all buffers containing 100 mM NaCl and 0.005% 5P20. Flow rates for the binding analyses were kept at 20 μl/min. […] Insulin was immobilized on a carboxymethyl-modified dextran surface via both amine and carboxyl coupling, using the surface thiol method, in two different lanes of Biacore CM5 chips. The immobilization was carried out according to the procedure described in the kits. In brief, the sensor chip surface was first washed with 4 M LiCl/HBS for 1 min and then with 0.2% SP20/HBS for 1 mM. The surface was activated according to standard procedure with an injection of 0.05 M NHS/0.2 M EDC for 7 min. Desalted insulin solution was diluted in acetate buffer, pH 4.5, to 20 μg/ml and injected at 50/min for different time intervals. For surface thiol coupling, the surface was first activated with 0.05 M NHS/0.2 M EDC for 2 min followed by a 3 min injection of 40 mM cystamine dihydrochloride and then 0.1 M DTE for 3 min. […] The mixture was incubated for 10 mM at room temperature and excess PDEA was removed on a NAP-10 column. The purified PDEA ligand was injected for 7 min, soon after DTE, and finally the surface was washed with 20 mM PDEA in 0.1 M sodium acetate, 1.0 M NaCl. For quick regeneration of the surface, 2 M guanidine-HC1, pH 6.4, was employed. For controls, lanes activated and deactivated according to the standard procedures were used. For subtraction of noise from the data, running buffer only was injected to all surfaces. […] Similar results where obtained when insulin was injected on C-peptide immobilized on the surface of a streptavidin (SA) chip. Both peptides were injected in concentration ranging from pM-μM at different pH from 3-7. […] This conclusion is compatible with the fact that C-peptide and insulin are joined in proinsulin by covalent bonds rather than binding attachments, and with little ordered structure in the C-peptide part. […] This appears relevant since C-peptide is very negative (−6 charges) with much repulsive forces.

The next test addresses T3, chip-bound C-peptide (Homo sapiens, UniProt P01308).
T3 sequence (P01308 57-87 limits assumed): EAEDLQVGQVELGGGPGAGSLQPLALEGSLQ
Briefly: SPR: binding of C-peptide in solution to chip-bound C-peptide. The protocol: Similar results where obtained when insulin was injected on C-peptide immobilized on the surface of a streptavidin (SA) chip. Both peptides were injected in concentration ranging from pM-μM at different pH from 3-7. […] This conclusion is compatible with the fact that C-peptide and insulin are joined in proinsulin by covalent bonds rather than binding attachments, and with little ordered structure in the C-peptide part. […] This appears relevant since C-peptide is very negative (−6 charges) with much repulsive forces.

The target in another test is T4, insulin (Homo sapiens, UniProt P01308).
T4 construct: 28; purchased Novo Nordisk A/S, Denmark Actrapid
T4 sequence (P01308 25-54 limits assumed): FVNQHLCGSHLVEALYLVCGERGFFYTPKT
T4 sequence (P01308 90-110 limits assumed): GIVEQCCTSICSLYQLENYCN
Briefly: Non-denaturing nano-electrospray mass spectrometry of insulin, C-peptide and control peptides. It counts as binding. The protocol:
For mass spectrometric analysis, preparation of concentrated insulin stock solution was performed essentially as described [Nettleton et al, 2000, Biophys J. 79:1053]. Briefly, insulin (NovoNordisk A/S, Denmark) was concentrated to 100 μM using ultrafiltration spin-filters (NanoSep, PallGellman, MWCO: 3000 Da). This stock solution was then buffer-exchanged to water, pH 5 (HCl), by extended dialysis. For all experiments, insulin and C-peptide stock solutions were diluted in water-HC1 (pH 5) to reach the indicated concentrations. C-peptide was prepared as a 746 μM stock solution in water and all control peptides were prepared similarly.
Mass spectrometry data were recorded with a QTOF Ultima API instrument (Waters, Milford, Mass.) operated in the positive ion mode. Sample solutions were analyzed by nanoelectrospray from conductive borosilicate glass capillaries (Proxeon Biosystems A/S, Odense, Denmark). Instrument settings were not modified for the observation of non-covalent complexes, other than that the “cone” and the “RF-lens” settings were set to 90 and 50 V, respectively.
The binding between insulin and C-peptide in the gas-phase was studied by non-denaturing electrospray mass spectrometry using a method analogous to that of Nettleton et al [Nettleton et al, 2000, Biophys J. 79:1053].

“Also recorded” adds a separate entry of the source.

T2 sequence (P01308 25-54 limits assumed): as the sequence (P01308 25-54 limits assumed) above
T1 sequence (P01308 25-54 limits assumed): as above

As for “Glu11-Ala: C-peptide analogue in which Glu 11 has been substituted with Ala (EAEDLQVGQVALGGGPGAGSLQPLALEGSLQ)”, the “effect on insulin-insulin interaction when injected along with insulin” value in test [1] is recorded as “failed to show any significant increase”. Moreover, the “interaction with immobilized insulin (peptide alone in solution)” value (shortened to “interaction with immobilized insulin”) in test [2] was “showed no interaction with insulin”.
Take “Glu27-Ala: C-peptide analogue in which Glu 27 has been substituted with Ala (EAEDLQVGQVELGGGPGAGSLQPLALAGSLQ)”: the “effect on insulin-insulin interaction when injected along with insulin” value in test [1] is “failed to show any significant increase”. Further, the “stimulation of SPR-measurable binding in mixture with insulin in the flow-through solution” value in test [1] (Example 10) is reported as “did also not stimulate the SPR signal”. In test [2], the “interaction with immobilized insulin” value is listed as “showed no interaction with insulin”.
On to “Proinsulin C-peptide (EAEDLQVGQVELGGGPGAGSLQPLALEGSLQ)”, for which, in test [1] (insulin:peptide 1:1 and 1:5, pH 3-7), the “effect on insulin-insulin interaction (SPR binding signal) when mixed with insulin” value was “higher interaction with immobilized insulin; also recorded: increases the observable SPR binding signal”. Further, in test [1] (pH 4 or 7, 10 μM insulin, 50 μM C-peptide), the “effect of C-peptide on insulin-insulin interaction at pH 4 or 7” value is listed as “little effect”. In addition, in test [1] (pH 5-6, 10 μM insulin, 50 μM C-peptide), the “effect of C-peptide on insulin-insulin interaction at pH 5-6” value is “Enhanced insulin interaction”. The “interaction with immobilized insulin” value in test [2] was “not to give any observable binding”; in test [2] (listed as Proinsulin C-peptide), “showed no interaction with insulin”. For the same substance, the “binding of C-peptide in solution to chip-bound C-peptide” value with chip-bound C-peptide was “no evidence for such binding”. The “self-aggregation of the peptide in the gas-phase” value with insulin is “showed an aggregation tendency”. The “interaction with insulin in nanoESI-MS at 0.3 μM” value with insulin (0.3 μM level, 1:1 ratio) is given as “not possible to detect”. Moreover, in the test with insulin (3 μM, 1:1 ratio, pH 5), the “interaction (heterodimer) with insulin in nanoESI-MS” value was “clearly shows the interaction”. Besides, the “hexameric insulin charge states in the presence of the peptide” value with insulin (30 μM insulin, 30 μM peptide, pH 5) was “no hexameric insulin was detectable; also recorded: absence of insulin hexamers”. For the same substance, the “concentration at which a dimer of the peptide was detected” value with insulin (gas-phase) amounted to 3 µM.
